First the molecules themselves.
B1: Yaf9 (natural protein, S. cerevisiae, UniProt P53930 1-226, looked up)
chain: MAPTISKRIKTLSVSRPIIYGNTAKKMGSVKPPNAPAEHTHLWTIFVRGPQNEDISYFIKKVVFKLHDTYPNPVRSIEAPPFELTETGWGEFDINIKVYFVEEANEKVLNFYHRLRLHPYANPVPNSDNGNEQNTTDHNSKDAEVSSVYFDEIVFNEPNEEFFKILMSRPGNLLPSNKTDDCVYSKQLEQEEIDRIEIGIEKVDKEIDELKQKLENLVKQEAINGS
notes: Yaf9, N-Module subunit of SWR1, S. cerevisiae; source: endogenous, S. cerevisiae; co-purified in the SWR1 complex
B2: Swc5 (natural protein, S. cerevisiae, UniProt P38326 1-303, looked up)
chain: MPEVETKIIPNEKEDEDEDGYIEEEDEDFQPEKDKLGGGSDDSDASDGGDDYDDGVNRDKGRNKVDYSRIESESGGLIKTRRARQAEEEYAKTHKYESLTVESIPAKVNSIWEELQEASKNRLLSSSGKVGSVLDGSKEARSTTAAQQEDKILIERNYKFAGETVHEKKWVSRSSAEGQEYLNSLKFKQQAPAAPVQLEKAVRTKSNESRQHLRRPLKRPPLLEQIISGGLRPKLTTLEKSQLDWASYVDRAGLNDELVLHNKDGFLARQEFLQRVGSAEDERYKELRRQQLAQQLQQDSEAS
notes: Swc5, subunit of SWR1, S. cerevisiae; also called small subunit Swc5; source: endogenous, S. cerevisiae; co-purified in the SWR1 complex
B3: Arp4 (natural protein, S. cerevisiae, UniProt P80428 1-489, looked up)
chain: MSNAALQVYGGDEVSAVVIDPGSYTTNIGYSGSDFPQSILPSVYGKYTADEGNKKIFSEQSIGIPRKDYELKPIIENGLVIDWDTAQEQWQWALQNELYLNSNSGIPALLTEPVWNSTENRKKSLEVLLEGMQFEACYLAPTSTCVSFAAGRPNCLVVDIGHDTCSVSPIVDGMTLSKSTRRNFIAGKFINHLIKKALEPKEIIPLFAIKQRKPEFIKKTFDYEVDKSLYDYANNRGFFQECKETLCHICPTKTLEETKTELSSTAKRSIESPWNEEIVFDNETRYGFAEELFLPKEDDIPANWPRSNSGVVKTWRNDYVPLKRTKPSGVNKSDKKVTPTEEKEQEAVSKSTSPAANSADTPNETGKRPLEEEKPPKENNELIGLADLVYSSIMSSDVDLRATLAHNVVLTGGTSSIPGLSDRLMTELNKILPSLKFRILTTGHTIERQYQSWLGGSILTSLGTFHQLWVGKKEYEEVGVERLLNDRFR
notes: Arp4, actin-related protein, N-Module subunit of SWR1, S. cerevisiae; source: endogenous, S. cerevisiae; co-purified in the SWR1 complex

The target in the experiment “Swc5” is B2. The experiment in a line: cross-linking; ∼45 μg affinity-purified SWR1 cross-linked with 1 mM DSS d0/d12 in SWR1 buffer, 37°C, 30 min; trypsin, SEC enrichment, LC-MS/MS, xQuest (CX-MS). The settings on record: both partners purified.
A further experiment deals with T1, Act1 (S. cerevisiae, UniProt P60010 1-375).
T1 construct: Act1 (actin), N-Module subunit of SWR1, S. cerevisiae; source: endogenous, S. cerevisiae; co-purified in the SWR1 complex
The description is as above. Particulars: both partners purified.

Experiment [1] addresses T2, Swr1, FLAG-tagged catalytic subunit of the SWR1 complex (S. cerevisiae, UniProt Q05471 1-1514).
T2 construct: Swr1, catalytic ATPase subunit of the SWR1 complex, S. cerevisiae; HSA domain in the N-terminal half, split ATPase domain with long insert in the C-terminal half; also called Swr1-3xFLAG; Swr1 ATPase
The experiment in a line: co-IP; FLAG affinity purification of SWR1 (or a subcomplex) from S. cerevisiae, eluted with 3× FLAG peptide; SDS-PAGE (4%-12% Bis-Tris), Coomassie or SYPRO Orange stain; band intensities normalised for protein size for the stoichiometry. Particulars: partners not purified.

For the next experiment, the target named is T3, Swc3 (S. cerevisiae, UniProt P31376 1-625).
T3 construct: Swc3, C-Module subunit of SWR1, S. cerevisiae; source: endogenous, S. cerevisiae; co-purified in the SWR1 complex
T3 sequence (looked up): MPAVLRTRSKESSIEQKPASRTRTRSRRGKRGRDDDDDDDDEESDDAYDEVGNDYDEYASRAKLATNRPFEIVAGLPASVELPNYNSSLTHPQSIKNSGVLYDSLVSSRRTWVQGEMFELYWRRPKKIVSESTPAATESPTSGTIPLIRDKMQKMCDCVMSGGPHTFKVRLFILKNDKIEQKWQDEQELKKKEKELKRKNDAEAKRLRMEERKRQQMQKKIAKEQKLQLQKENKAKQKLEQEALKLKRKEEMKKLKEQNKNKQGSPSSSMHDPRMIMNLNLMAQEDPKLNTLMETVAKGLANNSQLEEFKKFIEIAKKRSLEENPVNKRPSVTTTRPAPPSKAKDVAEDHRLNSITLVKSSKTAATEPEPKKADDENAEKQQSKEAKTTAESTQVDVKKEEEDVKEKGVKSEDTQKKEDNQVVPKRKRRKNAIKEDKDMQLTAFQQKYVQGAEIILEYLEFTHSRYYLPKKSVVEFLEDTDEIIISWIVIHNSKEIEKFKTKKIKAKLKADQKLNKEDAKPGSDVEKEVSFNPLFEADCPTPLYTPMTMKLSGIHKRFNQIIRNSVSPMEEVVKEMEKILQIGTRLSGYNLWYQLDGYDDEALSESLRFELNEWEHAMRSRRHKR
The experiment in a line: cross-linking; ∼45 μg affinity-purified SWR1 cross-linked with 1 mM DSS d0/d12 in SWR1 buffer, 37°C, 30 min; trypsin, SEC enrichment, LC-MS/MS, xQuest (CX-MS). The settings on record: both partners purified.

T2 sequence (Q05471 whole entry, the tested form may be a part, one chain of several): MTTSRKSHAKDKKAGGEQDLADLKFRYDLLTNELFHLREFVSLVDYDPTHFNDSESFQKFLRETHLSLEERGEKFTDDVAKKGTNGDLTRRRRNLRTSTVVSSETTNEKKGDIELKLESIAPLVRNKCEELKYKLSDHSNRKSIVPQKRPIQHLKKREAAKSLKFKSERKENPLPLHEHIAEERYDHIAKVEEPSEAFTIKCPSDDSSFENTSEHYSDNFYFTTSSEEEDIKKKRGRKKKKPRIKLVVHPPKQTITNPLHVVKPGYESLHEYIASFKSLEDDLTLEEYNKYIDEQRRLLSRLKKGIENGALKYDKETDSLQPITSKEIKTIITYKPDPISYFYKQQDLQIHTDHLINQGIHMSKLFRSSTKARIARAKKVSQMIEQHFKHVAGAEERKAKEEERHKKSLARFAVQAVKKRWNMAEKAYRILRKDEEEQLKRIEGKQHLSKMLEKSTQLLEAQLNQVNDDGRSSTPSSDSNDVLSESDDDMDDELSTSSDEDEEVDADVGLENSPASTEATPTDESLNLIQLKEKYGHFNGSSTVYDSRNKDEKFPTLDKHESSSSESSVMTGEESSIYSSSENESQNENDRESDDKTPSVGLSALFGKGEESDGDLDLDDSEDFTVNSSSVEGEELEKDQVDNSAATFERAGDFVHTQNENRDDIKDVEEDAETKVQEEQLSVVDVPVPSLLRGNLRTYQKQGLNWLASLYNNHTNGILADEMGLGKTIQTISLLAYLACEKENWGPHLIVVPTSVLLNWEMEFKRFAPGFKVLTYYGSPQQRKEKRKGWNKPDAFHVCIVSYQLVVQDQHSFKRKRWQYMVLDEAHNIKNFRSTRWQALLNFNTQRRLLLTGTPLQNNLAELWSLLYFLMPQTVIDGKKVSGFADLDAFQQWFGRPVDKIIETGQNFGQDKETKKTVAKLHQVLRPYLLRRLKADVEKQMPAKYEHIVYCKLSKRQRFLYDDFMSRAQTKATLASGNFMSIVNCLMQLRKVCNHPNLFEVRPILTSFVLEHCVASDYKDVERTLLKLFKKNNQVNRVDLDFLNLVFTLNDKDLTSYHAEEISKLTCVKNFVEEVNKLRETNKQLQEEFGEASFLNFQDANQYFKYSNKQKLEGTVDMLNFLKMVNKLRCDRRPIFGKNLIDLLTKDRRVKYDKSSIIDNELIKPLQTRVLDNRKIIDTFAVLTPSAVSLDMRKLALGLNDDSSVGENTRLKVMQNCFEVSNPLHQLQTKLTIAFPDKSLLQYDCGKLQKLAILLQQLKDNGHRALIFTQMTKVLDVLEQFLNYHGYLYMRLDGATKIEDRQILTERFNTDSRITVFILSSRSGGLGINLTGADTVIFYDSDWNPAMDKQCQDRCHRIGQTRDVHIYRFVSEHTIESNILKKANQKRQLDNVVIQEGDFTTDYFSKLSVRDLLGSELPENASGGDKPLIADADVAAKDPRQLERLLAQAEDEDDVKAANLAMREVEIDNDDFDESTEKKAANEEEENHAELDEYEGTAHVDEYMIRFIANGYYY

Consider B1, for which the binding result with Swc5 was “binds”. Consider B2, for which the binding result (with Act1; in experiment [1]) was “binds” in each case.

As to B3, the binding result with Swc3 is on record as “binds”.

For the origin of these results see article PMC3776929 (Cell, 2013).
